# Laboratory results taken from PMC12748981.
# Target: GST-NUPR1 (UniProt O60356)
# Assay: SPR
# Conditions: VHH
# Sequence of UniProt O60356 (O60356 whole entry): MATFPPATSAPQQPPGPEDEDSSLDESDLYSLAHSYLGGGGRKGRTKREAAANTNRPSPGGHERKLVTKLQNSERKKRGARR
substance,measurement,value
sdAb#07.81-3xFlag-cOdc1-Tat-6xHis (from UniProt P00860),Kd,307 nM
